Experiment [1] addresses T1, amphyphisin SH3 (AMPH_HUMAN), P49418.
T1 chain: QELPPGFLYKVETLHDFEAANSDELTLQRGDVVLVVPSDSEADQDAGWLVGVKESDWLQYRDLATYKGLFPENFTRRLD
In words: SPOT array.

For experiment [2], the target named is endophilin SH3 (SH3G2_HUMAN), Q99962. In words: SPOT array.

B1: P26022 194-207 (peptide)
chain: GSVHPVRPMRLESF
As to B1, the normalised SPOT signal, Boehringer light units (BLU); mean over the file's lines of this peptide in experiment [1] came to 9890; in experiment [2], 2470.

B2: Q9Y5K6 406-419 (peptide)
chain: GTVYPKRPEKPVPP
Consider B2, for which the values for the normalised SPOT signal, Boehringer light units (BLU); mean over the file's lines of this peptide in experiment [1] and in experiment [2] were 42.9 and 962, respectively.

B3: Q9NYQ8 617-630 (peptide)
chain: GVISLKRPFINLTA
Take B3: the values for the normalised SPOT signal, Boehringer light units (BLU); mean over the file's lines of this peptide in experiment [1] and in experiment [2] were 16.4 and 35.8, respectively.

B4: O75928 422-435 (peptide)
chain: GSWSPMRPKKEAMK
With B4, the normalised SPOT signal, Boehringer light units (BLU); mean over the file's lines of this peptide was determined as 168 in experiment [1] and 1880 in experiment [2].

B5: Q9NZK9 120-133 (peptide)
chain: ALLTPHRPGRALSF
For B5, the values for the normalised SPOT signal, Boehringer light units (BLU); mean over the file's lines of this peptide in experiment [1] and in experiment [2] were 5440 and 491, respectively.

B6: Q9H7L8 148-161 (peptide)
chain: GTLPPPRPRREGRS
With B6, the normalised SPOT signal, Boehringer light units (BLU); mean over the file's lines of this peptide in experiment [1] was 5470; in experiment [2], 3720.

B7: BAC05127 110-124 (peptide)
chain: GSSSPSRPPGLSSN
Take B7: the results for the normalised SPOT signal, Boehringer light units (BLU); mean over the file's lines of this peptide in experiment [1] and in experiment [2] were 72.7 and 318, respectively.

B8: Q9H7I4 14-27 (peptide)
chain: GTRAPQRPKRESRG
For B8, the normalised SPOT signal, Boehringer light units (BLU); mean over the file's lines of this peptide in experiment [1] is 11400; in experiment [2], 1420.

B9: Q9HD26 258-271 (peptide)
chain: GRNDLKRPMQAPPG
Regarding B9, the normalised SPOT signal, Boehringer light units (BLU); mean over the file's lines of this peptide in experiment [1] amounted to 32.8; in experiment [2] it was 39.5.

B10: Q9BR44 22-35 (peptide)
chain: GRSALRRPWRKSGS
For the molecule B10, the normalised SPOT signal, Boehringer light units (BLU); mean over the file's lines of this peptide turned out to be 531 in experiment [1] and 160 in experiment [2].

B11: Q9BXG4 352-365 (peptide)
chain: GSSALKRPFEDGLG
As to B11, the normalised SPOT signal, Boehringer light units (BLU); mean over the file's lines of this peptide in experiment [1] is 27.5; in experiment [2], 39.6.

B12: Q13191 898-911 (peptide)
chain: GSQAPARPPKPRPR
Regarding B12, the normalised SPOT signal, Boehringer light units (BLU); mean over the file's lines of this peptide in experiment [1] stood at 423; in experiment [2] it was 62500.

B13: BAC05028 186-200 (peptide)
chain: GRTPPARPPQDPAE
In the case of B13, the normalised SPOT signal, Boehringer light units (BLU); mean over the file's lines of this peptide in experiment [1] was determined as 69; in experiment [2] it was 129.

B14: P48634 1687-1701 (peptide)
chain: GSEPPRRPPPAPHD
With B14, the normalised SPOT signal, Boehringer light units (BLU); mean over the file's lines of this peptide in experiment [1] worked out at 372; in experiment [2] it was 2350.

B15: Q8TCB4 82-96 (peptide)
chain: ALLVPVKPPTAWEG
Consider B15, for which the normalised SPOT signal, Boehringer light units (BLU); mean over the file's lines of this peptide in experiment [1] came to 2.4; in experiment [2] it was 55.1.

B16: Q96AB7 34-47 (peptide)
chain: GTYQLRRPEDRPAG
With B16, the normalised SPOT signal, Boehringer light units (BLU); mean over the file's lines of this peptide in experiment [1] was determined as 14.3; in experiment [2], 21.7.

B17: Q9UN79 64-77 (peptide)
chain: GSPEPKRPGVSEAA
Consider B17, for which the normalised SPOT signal, Boehringer light units (BLU); mean over the file's lines of this peptide in experiment [1] was found to be 26.6; in experiment [2], 17.9.

B18: Q9NPG4 302-315 (peptide)
chain: GQVILRRPLDYEKN
Turning to B18, the normalised SPOT signal, Boehringer light units (BLU); mean over the file's lines of this peptide amounted to 19.8 in experiment [1] and 20.9 in experiment [2].

B19: O94851 799-812 (peptide)
chain: GSESLSRPWRARAK
In the case of B19, the normalised SPOT signal, Boehringer light units (BLU); mean over the file's lines of this peptide is 248 in experiment [1] and 91.7 in experiment [2].

B20: Q9NVM4 598-611 (peptide)
chain: GTVELRRPGQSHAA
Take B20: the values for the normalised SPOT signal, Boehringer light units (BLU); mean over the file's lines of this peptide in experiment [1] and in experiment [2] were 29 and 42.6, respectively.

B21: P01266 150-163 (peptide)
chain: GTRQLGRPKRSPRS
B21: the values for the normalised SPOT signal, Boehringer light units (BLU); mean over the file's lines of this peptide in experiment [1] and in experiment [2] were 148 and 152, respectively.

B22: Q9HCI5 739-752 (peptide)
chain: ALPHFRRPFFEEAA
With B22, the normalised SPOT signal, Boehringer light units (BLU); mean over the file's lines of this peptide in experiment [1] was 43.2; in experiment [2], 95.9.

B23: P22681 815-829 (peptide)
chain: GSQVPERPPKPFPR
For the molecule B23, the normalised SPOT signal, Boehringer light units (BLU); mean over the file's lines of this peptide in experiment [1] was determined as 1710; in experiment [2], 13600.

B24: Q9ULI4 1050-1063 (peptide)
chain: GREAPGRPPRAVPK
As to B24, the results for the normalised SPOT signal, Boehringer light units (BLU); mean over the file's lines of this peptide in experiment [1] and in experiment [2] were 2140 and 19300, respectively.

B25: Q15142 511-524 (peptide)
chain: GSVELRRPPAHQVM
For the molecule B25, the values for the normalised SPOT signal, Boehringer light units (BLU); mean over the file's lines of this peptide in experiment [1] and in experiment [2] were 55.2 and 52.2, respectively.

B26: Q9H4N7 178-191 (peptide)
chain: GRAWLRRPHPRDVG
For the molecule B26, the normalised SPOT signal, Boehringer light units (BLU); mean over the file's lines of this peptide in experiment [1] worked out at 2.1; in experiment [2], 55.2.

B27: Q9NUB4 27-41 (peptide)
chain: GSGSPVRPPVSTWG
In the case of B27, the normalised SPOT signal, Boehringer light units (BLU); mean over the file's lines of this peptide in experiment [1] worked out at 32.2; in experiment [2] it was 16.6.

B28: Q9UN36 56-69 (peptide)
chain: GTPKPKRPAILTYH
For B28, the normalised SPOT signal, Boehringer light units (BLU); mean over the file's lines of this peptide came out at 33.4 in experiment [1] and 1130 in experiment [2].

B29: Q9Y4Y7 208-222 (peptide)
chain: GTGSPARPPTPAQV
Take B29: the results for the normalised SPOT signal, Boehringer light units (BLU); mean over the file's lines of this peptide in experiment [1] and in experiment [2] were 85.9 and 2420, respectively.

B30: P98161 595-608 (peptide)
chain: GTQELRRPAQLRLQ
In the case of B30, the normalised SPOT signal, Boehringer light units (BLU); mean over the file's lines of this peptide came to 47.4 in experiment [1] and 45.8 in experiment [2].

B31: P17480 403-416 (peptide)
chain: GSEKPKRPVSAMFI
Turning to B31, the normalised SPOT signal, Boehringer light units (BLU); mean over the file's lines of this peptide in experiment [1] is 39.3; in experiment [2], 2530.

B32: O75016 262-275 (peptide)
chain: GRDFLQRPGRQPQA
Consider B32, for which the normalised SPOT signal, Boehringer light units (BLU); mean over the file's lines of this peptide came to 211 in experiment [1] and 135 in experiment [2].

B33: Q9BTV6 2-15 (peptide)
chain: GRPRPRRPAQYPAR
Consider B33, for which the normalised SPOT signal, Boehringer light units (BLU); mean over the file's lines of this peptide in experiment [1] came out at 73.1; in experiment [2], 649.

B34: Q01974 4-17 (peptide)
chain: GSALPRRPLLSIPA
Regarding B34, the values for the normalised SPOT signal, Boehringer light units (BLU); mean over the file's lines of this peptide in experiment [1] and in experiment [2] were 36.4 and 2140, respectively.

B35: P04818 4-17 (peptide)
chain: GSELPRRPLPPAAQ
Regarding B35, the normalised SPOT signal, Boehringer light units (BLU); mean over the file's lines of this peptide was 40.1 in experiment [1] and 70.6 in experiment [2].

B36: Q9P025 127-140 (peptide)
chain: ALPLPGRPARGVFY
As for B36, the results for the normalised SPOT signal, Boehringer light units (BLU); mean over the file's lines of this peptide in experiment [1] and in experiment [2] were 602 and 1290, respectively.

B37: Q15598 1240-1253 (peptide)
chain: GSGKPSRPSKPIVA
B37: the normalised SPOT signal, Boehringer light units (BLU); mean over the file's lines of this peptide in experiment [1] is 125; in experiment [2], 1350.

B38: O43593 424-437 (peptide)
chain: GSPAPKRPPDPFPG
For B38, the normalised SPOT signal, Boehringer light units (BLU); mean over the file's lines of this peptide in experiment [1] is 51.3; in experiment [2], 706.

The values are drawn from publication PMC314469, “Protein Interaction Networks by Proteome Peptide Scanning” (PLoS Biology, 2004).
